From US20230083273A1 (TRUSTEES OF INDIANA UNIVERSITY, published 2023)
Changes are numbered by the printed parent chain. In names and notes the source's numbering stands.

What was measured:
[1] = target: T1, HBV Cp149His monomer (Cp149-6xHis half-dimer) (hepatitis B virus (HBV), UniProt P03147 1-149); test: native mass spectrometry of the purified co-expressed protein; also a single SEC peak at the dimer position and about equal SDS-PAGE bands
T1 construct: also called Cp149His6; CpHis monomer

HBV Cp150 homodimer [2] = target: T2, HBV Cp150 homodimer (hepatitis B virus (HBV), UniProt P03147 1-149); test: negative-stain EM
T2 chain: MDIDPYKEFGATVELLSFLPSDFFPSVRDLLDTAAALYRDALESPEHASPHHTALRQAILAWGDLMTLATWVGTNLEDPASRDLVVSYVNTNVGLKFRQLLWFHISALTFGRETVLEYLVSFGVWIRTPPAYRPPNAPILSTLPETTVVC

[3] = target: the molecule itself; test: Ni2+-driven assembly (10 uM heterodimer, 100 uM NiCl2, low ionic strength); SEC, CDMS, negative-stain EM
HBV Cp150 homodimer [4] = target: T2, HBV Cp150 homodimer; test: co-assembly at 300 mM NaCl, SEC
[5] = target: the molecule itself; test: SEC of capsid assembly at 300 mM NaCl

B1: HBV Cp149Y132A monomer (Cp149-Y132A half-dimer) (other)
chain: MDIDPYKEFGATVELLSFLPSDFFPSVRDLLDTAAALYRDALESPEHCSPHHTALRQAILCWGDLMTLATWVGTNLEDPASRDLVVSYVNTNVGLKFRQLLWFHISCLTFGRETVLEYLVSFGVWIRTPPAARPPNAPILSTLPETTVV
binding result [1]: binds

B2: heterodimer Cp149HisCp149Y132A (other)
chain 1: MDIDPYKEFGATVELLSFLPSDFFPSVRDLLDTAAALYRDALESPEHCSPHHTALRQAILCWGDLMTLATWVGTNLEDPASRDLVVSYVNTNVGLKFRQLLWFHISCLTFGRETVLEYLVSFGVWIRTPPAYRPPNAPILSTLPETTVVHHHHHH
chain 2: B1 chain
notes: also called Cp149His6Cp149Y132A; asymmetric heterodimer
binding result (HBV Cp150 homodimer [2]): binds | binding result [3]: binds

B3: Cp149HisCp149Y132A hexamer (hexamer of heterodimers assembled with Ni2+) (other)
chain 1: B2 chain 1
chain 2: B1 chain
notes: also called heterodimer hexamer; hexamers
binding result (HBV Cp150 homodimer [4]): binds

B4: HBV Cp149 homodimer (wild-type assembly domain) (other)
chain: B1 chain with A132Y
notes: also called wild-type homodimer Cp149
binding result [5]: binds
